This assay deals with T1, 3′hExofl (human, UniProt Q8IV48 1-349).
T1 chain: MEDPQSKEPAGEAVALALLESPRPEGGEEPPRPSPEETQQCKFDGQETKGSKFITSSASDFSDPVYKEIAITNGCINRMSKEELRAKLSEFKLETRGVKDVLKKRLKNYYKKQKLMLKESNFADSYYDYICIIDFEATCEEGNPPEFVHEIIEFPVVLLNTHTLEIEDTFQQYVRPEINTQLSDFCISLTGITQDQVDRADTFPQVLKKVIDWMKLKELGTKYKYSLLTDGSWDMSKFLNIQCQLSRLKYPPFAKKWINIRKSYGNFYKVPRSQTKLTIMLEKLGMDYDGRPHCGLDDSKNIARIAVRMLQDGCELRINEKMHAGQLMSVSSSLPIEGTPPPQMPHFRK
The assay is described as follows: NMR.

The values below come from article PMC12775136 (2025).

B1: UPF2-AL (domain or fragment)
chain: NDKDSKDSMTEGENLEEDEEEEEGGAETEEQSGNESEVNEPEEEEGSDNDDDEGEEEEEENTDYLTDSNKENETDEENTEVMIKGGGLKH
The molecule B1 showed a Kd of 200 µM.

By Kd is commonly meant the free concentration of one partner at which half of the binding sites on the other are occupied at equilibrium, for simple one-to-one binding. Low readings indicate higher affinity, high ones lower affinity.
